Substrate: O=[N+]([O-])c1ccccc1O[C@@H]1O[C@H](CO)[C@H](O)[C@H](O)[C@H]1O
Test: purified protein
Type: biochemical, Bifidobacterium breve
Details: 50 mM sodium phosphate pH 6.5, 30 °C, 0.01-22 mM oNPG

B1: Bbreβgal-III (Bifidobacterium breve DSM 20213 = JCM 1192) (protein)
chain: MEHREFKWPQPLAGGKPRIWYGGDYNPDQWPEEVWDEDVALMQKAGVNLVSVAIFSWAKLEPEEGVYDFDWLDRVIDKLGKAGIAVDLASGTASPPMWMTQAHPEILWVDYRGDVCQPGARQHWRATSPVFLDYALNLCRKMAEHYKDNPYVVSWHVSNEYGCHNRFDYSEDAERAFQKWCEKKYGTIDAVNDAWGTAFWAQRMNNFSEIIPPRFIGDGNFMNPGKLLDWKRFSSDALLDFYKAERDALLEIAPKPQTTNFMVSAGGAGIDYDKWGYDVDFVSNDHYFTPGEAHFDELAYSASLCDGIARKNPWFLMEHSSSAVNWRPINYRVEPGELVRDSLAHLAMGSDAICYFQWRQSKAGAEKWHSSMVPHAGPDSQIFRDVCELGADLNKLADEGLLSTKLVKSKVAVVFDYESQWATEHTATPTQEVRHWTEPLAWFRALADNGLTADVVPVRGPWDEYEAVVLPSLTILSEETTRRVREYVANGGKLFVTYYTGLVDDKDHVWLGGYPGSIRDVVGVRVEEFAPMGNDFPGAIDHLDLDNGTVAHDFADVITSVADTAHVVAAFKADKWTGFDGAPAITVNDFGDGKAAYIGARLGREGLAKSLPALLEELGIETSAEDDRGEVLRVERADETGENHFVFLFNRTHDVAIVDVDGEPLVASLAQVNESEHTAAIQPNGVLVVKL
notes: pET21a(+) NdeI/NotI, His-tagged, E. coli BL21 Star (DE3), IMAC purified
- Km: 1570 ± 160 µM
- Vmax: 3650 µmol/min/mg
- kcat: 4690 ± 260 s⁻¹
- kcat/Km: 2.99e+06 ± 140000 M⁻¹ s⁻¹

From publication PMC12756740, “A GH42 β‑Galactosidase from the Human Isolate Bifidobacterium breve DSM 20213: Biochemical and Transgalactosylation Properties Reveal the Potential for Galacto-oligosaccharides Synthesis” (ACS Omega, 2025)
